Data as given in US8158376B2, “Bisubstrate fluorescent probe binding to protein kinases” (University of Tartu, priority 2006, dated 2012).
Read-outs that look alike come from different tables or passages of the source.

Tests used:
MSK1 = MSK1 (Homo sapiens, UniProt O75582); test: Kinase selectivity panel; assay type: biochemical; conditions: inhibitor 1 μM; ATP 20 μM; read-out: residual activity (%) MSK1
In short: (§1)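 Selectivity profiling spans 52 kinases in total; each assay proceeds at 30° C.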

MAPKAP-K1a/rsk-1 = MAPKAP-K1a/rsk-1 (Homo sapiens, UniProt Q15418); test: Kinase selectivity panel; assay type: biochemical; conditions: inhibitor 1 μM, ATP 50 μM
In short: as §1

PKA = PKA (Homo sapiens, UniProt P17612); test: Kinase selectivity panel; assay type: biochemical; conditions: inhibitor 1 μM; ATP 20 μM; read-out: residual activity (%) PKA
In short: as §1

eEF2K = molecular target: T1, eEF2K (Homo sapiens, UniProt O00418); test: Kinase selectivity panel; assay type: biochemical; conditions: read-out: residual activity (%) eEF2K
T1 sequence (O00418 1-725): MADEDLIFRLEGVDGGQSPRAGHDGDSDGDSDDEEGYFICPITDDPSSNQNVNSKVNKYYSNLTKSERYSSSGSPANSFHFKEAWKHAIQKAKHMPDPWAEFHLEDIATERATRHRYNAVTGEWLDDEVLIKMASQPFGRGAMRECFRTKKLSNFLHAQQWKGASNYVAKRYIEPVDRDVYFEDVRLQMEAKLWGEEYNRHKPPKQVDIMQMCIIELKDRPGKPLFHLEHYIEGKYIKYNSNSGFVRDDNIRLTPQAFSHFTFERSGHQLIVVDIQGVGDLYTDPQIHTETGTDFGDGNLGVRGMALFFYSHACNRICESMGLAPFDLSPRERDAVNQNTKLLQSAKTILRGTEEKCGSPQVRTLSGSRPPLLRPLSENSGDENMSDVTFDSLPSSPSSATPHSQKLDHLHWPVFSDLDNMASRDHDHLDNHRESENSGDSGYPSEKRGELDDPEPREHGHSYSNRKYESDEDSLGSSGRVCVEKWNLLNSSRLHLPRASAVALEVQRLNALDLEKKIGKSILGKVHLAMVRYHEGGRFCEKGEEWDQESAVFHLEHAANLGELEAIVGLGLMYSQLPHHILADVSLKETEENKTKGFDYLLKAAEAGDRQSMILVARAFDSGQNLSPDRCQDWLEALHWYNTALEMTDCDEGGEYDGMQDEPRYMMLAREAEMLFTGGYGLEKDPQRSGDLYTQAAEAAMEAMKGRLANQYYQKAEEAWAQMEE
In short: as §1

ROCK-II = ROCK-II (Homo sapiens, UniProt O75116); test: Kinase selectivity panel; assay type: biochemical; conditions: inhibitor 1 μM; ATP 20 μM; read-out: residual activity (%) ROCK-II
In short: as §1

CDK2/cyclin A = CDK2/cyclin A (Homo sapiens, UniProt P24941); test: Kinase selectivity panel; assay type: biochemical; conditions: inhibitor 1 μM; ATP 20 μM; read-out: residual activity (%) CDK2/cyclin A
Experimental: (§2) The panel of kinases included all 52 kinases available for testing. To the best of our knowledge, the selectivity profiling has not been carried out with a wide panel of PK before for bisubstrate-type inhibitors.
(§3) The assay of protein kinases was performed at 30° C. as described previously [Davies et al., Biochem. J. 351 (2000) 95; Murray et al., Biochem. J. 384 (2004) 477]. The results of the testing are expressed as the % of residual activity of the kinase in the presence of the inhibitor at 1 micromolar concentration.

SAPK2b/p38β2 = SAPK2b/p38β2 (Homo sapiens, UniProt Q15759); test: Kinase selectivity panel; assay type: biochemical; conditions: inhibitor 1 μM; ATP 20 μM; read-out: residual activity (%) SAPK2b/p38β2
Experimental: as §2, §3

MAPK2/ERK2 = MAPK2/ERK2 (Homo sapiens, UniProt P28482); test: Kinase selectivity panel; assay type: biochemical; conditions: inhibitor 1 μM; ATP 50 μM; read-out: residual activity (%) MAPK2/ERK2
Experimental: as §2, §3

SAPK3/p38g = molecular target: T2, SAPK3/p38g (Homo sapiens, UniProt P53778); test: Kinase selectivity panel; assay type: biochemical; conditions: inhibitor 1 μM; ATP 5 μM; read-out: residual activity (%) SAPK3/p38g
T2 sequence (P53778 1-367): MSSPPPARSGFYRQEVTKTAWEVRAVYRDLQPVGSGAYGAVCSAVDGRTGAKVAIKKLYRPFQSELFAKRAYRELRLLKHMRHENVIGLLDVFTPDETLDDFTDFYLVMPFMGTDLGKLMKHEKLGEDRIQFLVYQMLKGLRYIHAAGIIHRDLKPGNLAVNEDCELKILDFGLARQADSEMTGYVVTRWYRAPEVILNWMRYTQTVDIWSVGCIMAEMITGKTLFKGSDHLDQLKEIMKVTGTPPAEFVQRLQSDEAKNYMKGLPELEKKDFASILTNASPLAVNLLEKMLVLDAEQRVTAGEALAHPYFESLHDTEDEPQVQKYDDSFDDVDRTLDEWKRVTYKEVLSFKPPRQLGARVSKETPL
Experimental: as §2, §3

SAPK4/p38d = molecular target: T3, SAPK4/p38d (Homo sapiens, UniProt O15264); test: Kinase selectivity panel; assay type: biochemical; conditions: inhibitor 1 μM; ATP 5 μM; read-out: residual activity (%) SAPK4/p38d
T3 sequence (O15264 1-365): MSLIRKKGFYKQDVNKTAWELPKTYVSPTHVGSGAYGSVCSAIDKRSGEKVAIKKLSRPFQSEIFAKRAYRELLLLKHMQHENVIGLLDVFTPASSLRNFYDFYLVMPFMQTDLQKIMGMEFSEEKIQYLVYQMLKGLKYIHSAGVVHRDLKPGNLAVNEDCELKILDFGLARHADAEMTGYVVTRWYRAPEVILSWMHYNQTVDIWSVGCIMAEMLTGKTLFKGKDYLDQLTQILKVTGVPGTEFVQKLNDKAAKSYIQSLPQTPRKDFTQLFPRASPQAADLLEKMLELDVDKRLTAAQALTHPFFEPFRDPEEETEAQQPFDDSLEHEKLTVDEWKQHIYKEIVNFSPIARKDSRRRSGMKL
Experimental: as §2, §3

SAPK2a/p38 = SAPK2a/p38 (Homo sapiens, UniProt Q16539); test: Kinase selectivity panel; assay type: biochemical; conditions: inhibitor 1 μM; ATP 50 μM; read-out: residual activity (%) SAPK2a/p38
Experimental: as §2, §3

JNK/SAPK1c = JNK/SAPK1c (Homo sapiens, UniProt P45983); test: Kinase selectivity panel; assay type: biochemical; conditions: inhibitor 1 μM; ATP 20 μM; read-out: residual activity (%) JNK/SAPK1c
Experimental: as §2, §3

cAPK Cα = cAPK Cα (Homo sapiens, UniProt P17612); test: High-throughput displacement of ARC-TAMRA from cAPK Cα, PHERAstar
Experimental: To determine the inhibition constant (Ki), 3-fold serial dilutions of a given inhibitor are performed analogously as for titration experiments. Before the measurement of fluorescence anisotropies the plate is rotated (400 rpm) for 10 minutes at 30° C.

SAPK2a/p38, sequence (Q16539 whole entry): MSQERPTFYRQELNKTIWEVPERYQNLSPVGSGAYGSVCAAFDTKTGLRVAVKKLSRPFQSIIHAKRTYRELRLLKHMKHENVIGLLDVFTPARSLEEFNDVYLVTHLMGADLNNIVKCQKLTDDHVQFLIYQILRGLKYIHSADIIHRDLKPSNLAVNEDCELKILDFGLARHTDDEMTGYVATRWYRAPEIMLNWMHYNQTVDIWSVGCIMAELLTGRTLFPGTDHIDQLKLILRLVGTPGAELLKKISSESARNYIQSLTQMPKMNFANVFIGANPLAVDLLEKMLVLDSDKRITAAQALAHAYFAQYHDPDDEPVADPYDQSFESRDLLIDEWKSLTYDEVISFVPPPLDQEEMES
MAPK2/ERK2, sequence (P28482 whole entry): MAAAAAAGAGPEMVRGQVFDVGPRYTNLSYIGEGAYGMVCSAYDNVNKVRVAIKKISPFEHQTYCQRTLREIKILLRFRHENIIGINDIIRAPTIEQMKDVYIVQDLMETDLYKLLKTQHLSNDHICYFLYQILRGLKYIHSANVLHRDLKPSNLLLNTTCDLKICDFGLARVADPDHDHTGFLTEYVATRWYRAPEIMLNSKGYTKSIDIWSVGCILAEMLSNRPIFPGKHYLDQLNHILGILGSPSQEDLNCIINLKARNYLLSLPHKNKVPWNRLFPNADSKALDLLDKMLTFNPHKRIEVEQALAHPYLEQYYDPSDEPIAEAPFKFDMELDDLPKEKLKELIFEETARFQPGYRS
JNK/SAPK1c, sequence (P45983 whole entry): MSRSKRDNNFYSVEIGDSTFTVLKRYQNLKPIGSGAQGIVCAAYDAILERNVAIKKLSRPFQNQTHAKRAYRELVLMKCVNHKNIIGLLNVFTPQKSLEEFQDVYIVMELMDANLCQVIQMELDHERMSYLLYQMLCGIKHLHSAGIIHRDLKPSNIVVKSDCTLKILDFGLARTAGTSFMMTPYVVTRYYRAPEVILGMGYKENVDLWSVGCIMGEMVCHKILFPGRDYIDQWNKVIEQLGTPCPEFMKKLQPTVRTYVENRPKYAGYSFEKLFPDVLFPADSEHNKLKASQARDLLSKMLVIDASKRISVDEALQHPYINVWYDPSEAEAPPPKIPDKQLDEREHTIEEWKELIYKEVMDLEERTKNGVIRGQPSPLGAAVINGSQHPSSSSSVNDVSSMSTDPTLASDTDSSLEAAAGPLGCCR
SAPK2b/p38β2, sequence (Q15759 whole entry): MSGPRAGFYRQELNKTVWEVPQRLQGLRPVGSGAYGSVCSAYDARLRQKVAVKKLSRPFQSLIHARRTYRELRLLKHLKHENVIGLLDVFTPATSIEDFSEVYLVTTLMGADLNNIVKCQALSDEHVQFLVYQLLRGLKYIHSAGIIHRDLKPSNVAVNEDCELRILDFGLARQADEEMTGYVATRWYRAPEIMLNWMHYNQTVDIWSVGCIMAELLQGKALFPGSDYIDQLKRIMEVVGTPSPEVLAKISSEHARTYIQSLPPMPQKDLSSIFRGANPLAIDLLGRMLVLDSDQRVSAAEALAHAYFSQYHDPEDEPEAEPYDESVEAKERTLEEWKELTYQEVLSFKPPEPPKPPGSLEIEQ
MAPKAP-K1a/rsk-1, sequence (Q15418 whole entry): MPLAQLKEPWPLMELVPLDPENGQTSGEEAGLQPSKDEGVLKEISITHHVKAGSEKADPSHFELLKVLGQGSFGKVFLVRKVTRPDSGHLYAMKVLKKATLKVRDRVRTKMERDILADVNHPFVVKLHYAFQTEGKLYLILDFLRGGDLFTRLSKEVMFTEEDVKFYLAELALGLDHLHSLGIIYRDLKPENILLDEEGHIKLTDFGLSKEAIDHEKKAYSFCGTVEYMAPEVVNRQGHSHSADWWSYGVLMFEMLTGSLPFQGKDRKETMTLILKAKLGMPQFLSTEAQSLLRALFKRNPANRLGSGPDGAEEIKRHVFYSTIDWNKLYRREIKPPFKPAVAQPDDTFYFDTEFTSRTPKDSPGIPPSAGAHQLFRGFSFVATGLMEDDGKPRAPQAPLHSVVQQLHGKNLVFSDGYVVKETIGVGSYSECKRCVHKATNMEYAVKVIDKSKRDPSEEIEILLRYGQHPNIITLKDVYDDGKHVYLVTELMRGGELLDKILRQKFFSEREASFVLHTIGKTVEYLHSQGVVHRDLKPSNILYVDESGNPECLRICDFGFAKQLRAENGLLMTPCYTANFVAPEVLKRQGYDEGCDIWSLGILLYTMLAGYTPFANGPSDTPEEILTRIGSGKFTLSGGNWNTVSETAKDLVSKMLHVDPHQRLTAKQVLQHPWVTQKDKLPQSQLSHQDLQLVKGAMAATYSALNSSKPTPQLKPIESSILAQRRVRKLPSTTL
ROCK-II, sequence (O75116 whole entry, species assumed): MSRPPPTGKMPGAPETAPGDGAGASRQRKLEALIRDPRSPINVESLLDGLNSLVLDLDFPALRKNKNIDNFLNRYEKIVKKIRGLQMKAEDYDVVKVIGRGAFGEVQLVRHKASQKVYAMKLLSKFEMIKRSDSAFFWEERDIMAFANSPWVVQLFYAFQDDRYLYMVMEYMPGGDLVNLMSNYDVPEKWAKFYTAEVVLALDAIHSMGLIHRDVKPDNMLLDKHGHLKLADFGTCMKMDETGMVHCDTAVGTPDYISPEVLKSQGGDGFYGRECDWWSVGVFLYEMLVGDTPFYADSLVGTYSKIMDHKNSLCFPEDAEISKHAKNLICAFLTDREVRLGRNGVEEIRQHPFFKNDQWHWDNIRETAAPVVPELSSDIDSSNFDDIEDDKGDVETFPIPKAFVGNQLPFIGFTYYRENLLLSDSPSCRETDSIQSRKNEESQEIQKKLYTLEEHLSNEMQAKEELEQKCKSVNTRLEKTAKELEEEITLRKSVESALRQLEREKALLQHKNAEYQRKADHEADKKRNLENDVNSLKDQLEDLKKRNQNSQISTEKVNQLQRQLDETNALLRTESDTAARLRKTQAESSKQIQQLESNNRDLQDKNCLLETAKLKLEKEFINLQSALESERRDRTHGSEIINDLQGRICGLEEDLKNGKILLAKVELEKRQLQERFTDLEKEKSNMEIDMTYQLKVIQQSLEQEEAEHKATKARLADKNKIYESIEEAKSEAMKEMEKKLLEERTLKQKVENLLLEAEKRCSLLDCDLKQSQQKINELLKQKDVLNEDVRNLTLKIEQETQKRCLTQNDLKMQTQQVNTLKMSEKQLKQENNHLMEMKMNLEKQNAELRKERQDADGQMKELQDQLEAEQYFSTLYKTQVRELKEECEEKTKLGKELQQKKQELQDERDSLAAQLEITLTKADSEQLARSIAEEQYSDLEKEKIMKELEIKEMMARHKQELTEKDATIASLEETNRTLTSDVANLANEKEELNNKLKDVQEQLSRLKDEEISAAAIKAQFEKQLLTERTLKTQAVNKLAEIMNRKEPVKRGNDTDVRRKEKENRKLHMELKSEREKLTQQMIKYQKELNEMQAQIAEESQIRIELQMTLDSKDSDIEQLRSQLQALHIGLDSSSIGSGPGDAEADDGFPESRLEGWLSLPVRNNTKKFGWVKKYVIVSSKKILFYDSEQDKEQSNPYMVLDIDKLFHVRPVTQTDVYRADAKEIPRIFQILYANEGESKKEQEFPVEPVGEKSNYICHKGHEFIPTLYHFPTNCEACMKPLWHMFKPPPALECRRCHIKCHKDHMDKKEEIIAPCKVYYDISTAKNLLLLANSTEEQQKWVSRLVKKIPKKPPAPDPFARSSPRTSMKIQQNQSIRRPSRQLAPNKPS
MSK1, sequence (O75582 whole entry, species assumed): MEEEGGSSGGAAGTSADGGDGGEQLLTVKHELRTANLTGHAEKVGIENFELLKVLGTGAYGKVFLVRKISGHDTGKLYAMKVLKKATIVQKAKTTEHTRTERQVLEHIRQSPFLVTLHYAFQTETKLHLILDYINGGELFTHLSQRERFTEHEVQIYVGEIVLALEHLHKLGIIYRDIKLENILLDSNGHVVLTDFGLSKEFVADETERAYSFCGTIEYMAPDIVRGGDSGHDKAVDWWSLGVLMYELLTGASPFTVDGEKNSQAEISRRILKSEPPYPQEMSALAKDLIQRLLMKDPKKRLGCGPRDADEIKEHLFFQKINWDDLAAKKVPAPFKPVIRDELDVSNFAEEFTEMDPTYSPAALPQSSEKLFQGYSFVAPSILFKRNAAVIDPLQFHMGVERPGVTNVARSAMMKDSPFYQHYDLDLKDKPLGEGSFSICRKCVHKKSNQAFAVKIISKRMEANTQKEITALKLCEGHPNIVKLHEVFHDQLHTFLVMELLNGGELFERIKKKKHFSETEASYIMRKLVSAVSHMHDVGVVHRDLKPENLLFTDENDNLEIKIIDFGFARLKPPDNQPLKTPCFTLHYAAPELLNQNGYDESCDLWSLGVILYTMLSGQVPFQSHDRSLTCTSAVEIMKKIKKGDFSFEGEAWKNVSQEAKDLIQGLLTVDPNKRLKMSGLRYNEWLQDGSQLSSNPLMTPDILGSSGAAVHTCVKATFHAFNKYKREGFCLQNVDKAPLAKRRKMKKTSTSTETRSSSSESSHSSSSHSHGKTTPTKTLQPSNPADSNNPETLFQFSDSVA

Row | SMILES | remaining activity at 1 µM (MSK1) | remaining activity at 1 µM (MAPKAP-K1a/rsk-1; read-out: residual activity (%) MAPKAP-K1a/rsk-1) | remaining activity at 1 µM (PKA) | remaining activity at 1 µM (eEF2K; inhibitor 1 μM, ATP 5 μM) | remaining activity at 1 µM (ROCK-II) | remaining activity at 1 µM (CDK2/cyclin A) | remaining activity at 1 µM (SAPK2b/p38β2) | remaining activity at 1 µM (MAPK2/ERK2) | remaining activity at 1 µM (SAPK3/p38g) | remaining activity at 1 µM (SAPK4/p38d) | remaining activity at 1 µM (SAPK2a/p38) | remaining activity at 1 µM (JNK/SAPK1c) | residual activity (%) MAPKAP-K1a/rsk-1 (MAPKAP-K1a/rsk-1) | remaining activity at 1 µM (eEF2K) | Ki (cAPK Cα)
1 | N=C(N)NCCC[C@@H](NC(=O)[C@@H](CCCNC(=N)N)NC(=O)[C@@H](CCCNC(=N)N)NC(=O)[C@@H](CCCNC(=N)N)NC(=O)[C@@H](CCCNC(=N)N)NC(=O)[C@@H](CCCNC(=N)N)NC(=O)CCCCCNCCNS(=O)(=O)c1cccc2cnccc12)C(N)=O [Compound 26, H9-Hex(D-Arg)6-NH2] | 1% | 0% | < 10% | 91% | 0% | 73% | 80% | 95% | 99% | 93% | 76% | 75% | – | – | –
2 | N=C(N)NCCC[C@@H](NC(=O)[C@@H](CCCNC(=N)N)NC(=O)[C@@H](CCCNC(=N)N)NC(=O)[C@@H](CCCNC(=N)N)NC(=O)[C@@H](CCCNC(=N)N)NC(=O)[C@@H](CCCNC(=N)N)NC(=O)CCCCCNC(=O)[C@H]1O[C@@H](n2cnc3c(N)ncnc32)[C@H](O)[C@@H]1O)C(N)=O [Compound 5, AdcAhx(D-Arg)6-NH2] | – | – | – | – | – | 88% | 85% | 100% | 111% | 107% | 79% | 70% | 28 (±7) % | 92% | 1.1 nM
